Data from patent US20170247475A1 (Boehringer Ingelheim, published 2017).

T1: recombinant mouse VEGF164 (mouse, UniProt Q00731-2 27-190)
T1 construct: biotinylated in the mVEGFR2 AlphaScreen; also called rmVEGF164; mVEGF164
T1 sequence (looked up): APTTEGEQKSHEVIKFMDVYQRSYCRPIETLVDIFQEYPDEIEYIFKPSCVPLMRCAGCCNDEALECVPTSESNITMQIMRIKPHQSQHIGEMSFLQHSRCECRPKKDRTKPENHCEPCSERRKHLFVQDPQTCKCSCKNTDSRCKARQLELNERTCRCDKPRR

T2: recombinant human VEGF121 (human, UniProt P15692-9 27-147)
T2 construct: also called rhVEGF121; hVEGF121
T2 sequence (looked up): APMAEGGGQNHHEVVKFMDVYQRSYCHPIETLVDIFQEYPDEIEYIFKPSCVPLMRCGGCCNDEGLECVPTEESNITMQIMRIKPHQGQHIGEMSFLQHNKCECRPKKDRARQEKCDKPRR


Assays:
[1] = biological target: T1, recombinant mouse VEGF164; assay: binding ELISA, coated rmVEGF164
Protocol: Cross-reactivity to mouse VEGF164 is determined using a binding ELISA. […] Wells are blocked with a casein solution (1% in PBS). […] A mouse VEGF164 reactive mAb is included as positive control.

VEGF = assay: cell-based or functional assay
[2] = biological target: T2, recombinant human VEGF121; assay: binding ELISA, coated rhVEGF121
Protocol: Binding to recombinant human VEGF121 is assessed via a solid phase binding ELISA. Briefly, recombinant human VEGF121 (R&D Systems, Minneapolis, Minn., USA) is coated overnight at 4° C. at 1 μg/mL in a 96-well MaxiSorp plate (Nunc, Wiesbaden, Germany). Wells are blocked with a casein solution (1% in PBS).

[3] = biological target: T3, recombinant human VEGF165 (human, UniProt P15692-4 27-191); assay: Biacore, periplasmic extract on hVEGF165 chip
T3 construct: also called hVEGF165; rhVEGF165
Target sequence in this assay (P15692 other isoform, or with tags, fused parts or gaps limits assumed): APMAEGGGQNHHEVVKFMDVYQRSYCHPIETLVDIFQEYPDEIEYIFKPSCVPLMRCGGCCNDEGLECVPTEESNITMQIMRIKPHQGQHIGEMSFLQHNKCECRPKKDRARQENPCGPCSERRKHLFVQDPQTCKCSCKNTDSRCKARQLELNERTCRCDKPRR

[4] = biological target: T3, recombinant human VEGF165; assay: AlphaScreen competition, 0.05 nM hVEGF165 and 0.05 nM hVEGFR1-Fc; blocked: hVEGFR1-Fc
Target sequence in this assay (P15692 other isoform, or with tags, fused parts or gaps limits assumed): as above

[5] = biological target: T3, recombinant human VEGF165; assay: as above; remark: listed apart in the source
Target sequence in this assay (P15692 other isoform, or with tags, fused parts or gaps limits assumed): as above

[6] = biological target: T3, recombinant human VEGF165; assay: AlphaScreen competition, 0.05 nM hVEGF165 and 0.05 nM hVEGFR2-Fc; blocked: hVEGFR2-Fc
Target sequence in this assay (P15692 other isoform, or with tags, fused parts or gaps limits assumed): as above

[7] = biological target: T3, recombinant human VEGF165; assay: as above; remark: listed apart in the source
Target sequence in this assay (P15692 other isoform, or with tags, fused parts or gaps limits assumed): as above

[8] = biological target: T3, recombinant human VEGF165; assay: kd1; SPR Biacore T100 on hVEGF165
Target sequence in this assay (P15692 other isoform, or with tags, fused parts or gaps limits assumed): as above

[9] = biological target: T3, recombinant human VEGF165; assay: AlphaScreen competition, 0.05 nM hVEGF165 and 0.05 nM hVEGFR1-Fc; blocked: hVEGFR1-Fc; remark: listed apart in the source
[10] = biological target: T3, recombinant human VEGF165; assay: AlphaScreen competition, 0.05 nM hVEGF165 and 0.05 nM hVEGFR2-Fc; blocked: hVEGFR2-Fc; remark: listed apart in the source
[11] = biological target: T3, recombinant human VEGF165; assay: competition AlphaScreen, blocking of hVEGF165 binding to hVEGFR1-Fc
[12] = biological target: T3, recombinant human VEGF165; assay: AlphaScreen competition, 0.05 nM hVEGF165 and 0.05 nM hVEGFR1-Fc; blocked: hVEGFR1-Fc; remark: listed apart in the source
[13] = biological target: T3, recombinant human VEGF165; assay: competition AlphaScreen, blocking of hVEGF165 binding to hVEGFR2-Fc

binding result [1]	% inhibition, VEGF HUVEC proliferation assay (VEGF)	IC50 (nM), VEGF HUVEC proliferation assay (VEGF)	EC50 [2]	Binding level (RU) [3]	IC50 (read off the curve) [4]	IC50 (read off the curve) [5]	IC50 (read off the curve) [6]	IC50 (read off the curve) [7]	koff [8]	IC50 (read off the curve) [9]	IC50 (read off the curve) [10]	IC50 (read off the curve) [11]	IC50 (read off the curve) [12]	IC50 (read off the curve) [13]	Binder
no binding (tested: 500 nM-32 pM)	91%	0.36 nM	0.51 nM	768 RU	–	–	–	–	–	–	–	–	–	–	VEGFBII23B04 (VHH, also called VEGFBII23B4; VEGFBII23B04 (wt)) VHH: EVQLVESGGGLVQTGDSLRLSCEVSGRTFSSYSMGWFRQAQGKEREFVVAISKGGYKYDSVSLEGRFTISKDNAKNTVYLQINSLKPEDTAVYYCASSRAYGSSRLRLADTYEYWGQGTQVTVSS
–	–	–	–	–	~0.5 nM	~0.5 nM	~0.2 nM	~0.4 nM	0.013 s⁻¹	~0.8 nM	~0.4 nM	~0.4 nM	~0.5 nM	~0.4 nM	VEGFBII038 (VHH, also called VEGFBII0038; VEGFBII00038) VHH: DVQLVESGGGLVQPGGSLRLSCAASGRTFSSYSMGWFRQAPGKEREFVVAISKGGYKYDAVSLEGRFTISRDNAKNTVYLQINSLRPEDTAVYYCASSRAYGSSRLRLADTYEYWGQGTLVTVSS
